Measured values from US20210171647A1 (WUXI BIOLOGICS SHANGHAI, published 2021).

Assays:
Test in all cases: ELISA, antibody coated, OX40-ECD.His mutant supernatant; relative to silent alanine substitutions;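 note: captured OX40 mutant protein detected with HRP-labelled anti-His antibody, absorbance read-out, scaled to the mean signal of control mutants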
[1] = target: T1, human OX40-ECD.His S162A (human, UniProt P43489 29-214)
T1 construct: extracellular domain; not shown: C-terminal His-tag
T1 sequence (looked up): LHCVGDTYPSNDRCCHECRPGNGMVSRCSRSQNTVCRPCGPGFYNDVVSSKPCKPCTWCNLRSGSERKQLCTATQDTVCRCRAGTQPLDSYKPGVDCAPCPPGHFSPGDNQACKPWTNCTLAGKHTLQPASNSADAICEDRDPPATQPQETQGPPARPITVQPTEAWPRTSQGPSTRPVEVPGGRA

[2] = target: T2, human OX40-ECD.His K82A (human, UniProt P43489 29-214)
T2 construct: extracellular domain; not shown: C-terminal His-tag
T2 sequence (looked up): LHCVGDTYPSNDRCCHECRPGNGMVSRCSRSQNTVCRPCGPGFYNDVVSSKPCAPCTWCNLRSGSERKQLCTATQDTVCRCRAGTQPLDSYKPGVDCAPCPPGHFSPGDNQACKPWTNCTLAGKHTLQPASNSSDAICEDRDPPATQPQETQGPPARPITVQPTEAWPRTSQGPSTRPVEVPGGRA

[3] = target: T3, human OX40-ECD.His P129A (human, UniProt P43489 29-214)
T3 construct: extracellular domain; not shown: C-terminal His-tag
T3 sequence (looked up): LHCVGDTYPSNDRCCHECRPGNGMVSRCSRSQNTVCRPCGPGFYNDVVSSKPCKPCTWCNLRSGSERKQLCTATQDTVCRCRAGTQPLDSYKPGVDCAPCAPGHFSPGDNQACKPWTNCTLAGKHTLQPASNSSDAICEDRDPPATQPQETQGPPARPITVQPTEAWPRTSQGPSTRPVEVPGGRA

[4] = target: T4, human OX40-ECD.His P66A (human, UniProt P43489 29-214)
T4 construct: extracellular domain; not shown: C-terminal His-tag
T4 sequence (looked up): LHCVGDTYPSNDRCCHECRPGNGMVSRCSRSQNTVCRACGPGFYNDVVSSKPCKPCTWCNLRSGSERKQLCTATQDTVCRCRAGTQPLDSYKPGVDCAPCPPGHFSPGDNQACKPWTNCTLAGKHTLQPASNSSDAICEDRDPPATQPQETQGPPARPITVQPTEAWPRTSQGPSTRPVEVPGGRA

[5] = target: T5, human OX40-ECD.His D104A (human, UniProt P43489 29-214)
T5 construct: extracellular domain; not shown: C-terminal His-tag
T5 sequence (looked up): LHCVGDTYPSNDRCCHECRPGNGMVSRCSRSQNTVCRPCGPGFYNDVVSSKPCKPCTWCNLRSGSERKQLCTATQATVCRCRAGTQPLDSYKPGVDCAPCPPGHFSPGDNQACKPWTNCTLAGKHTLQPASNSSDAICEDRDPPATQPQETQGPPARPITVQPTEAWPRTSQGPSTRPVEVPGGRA

[6] = target: T6, human OX40-ECD.His Y119A (human, UniProt P43489 29-214)
T6 construct: extracellular domain; not shown: C-terminal His-tag
T6 sequence (looked up): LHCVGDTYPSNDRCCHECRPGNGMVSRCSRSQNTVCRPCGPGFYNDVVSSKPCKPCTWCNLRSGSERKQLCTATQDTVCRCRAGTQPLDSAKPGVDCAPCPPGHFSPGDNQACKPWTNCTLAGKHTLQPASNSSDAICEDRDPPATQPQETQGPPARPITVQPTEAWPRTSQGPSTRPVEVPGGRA

[7] = target: T7, human OX40-ECD.His S59A (human, UniProt P43489 29-214)
T7 construct: extracellular domain; not shown: C-terminal His-tag
T7 sequence (looked up): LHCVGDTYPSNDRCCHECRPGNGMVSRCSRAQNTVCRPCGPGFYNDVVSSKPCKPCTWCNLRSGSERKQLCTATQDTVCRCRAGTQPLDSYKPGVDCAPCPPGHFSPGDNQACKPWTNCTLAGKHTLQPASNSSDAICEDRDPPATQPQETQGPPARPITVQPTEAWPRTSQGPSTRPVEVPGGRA

[8] = target: T8, human OX40-ECD.His T85A (human, UniProt P43489 29-214)
T8 construct: extracellular domain; not shown: C-terminal His-tag
T8 sequence (looked up): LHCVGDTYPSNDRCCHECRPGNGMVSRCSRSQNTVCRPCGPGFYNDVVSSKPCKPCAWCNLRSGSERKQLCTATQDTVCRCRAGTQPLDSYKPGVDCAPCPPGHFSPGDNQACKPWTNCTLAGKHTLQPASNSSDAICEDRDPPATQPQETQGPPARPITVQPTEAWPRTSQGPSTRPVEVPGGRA

[9] = target: T9, human OX40-ECD.His G33A (human, UniProt P43489 29-214)
T9 construct: extracellular domain; not shown: C-terminal His-tag
T9 sequence (looked up): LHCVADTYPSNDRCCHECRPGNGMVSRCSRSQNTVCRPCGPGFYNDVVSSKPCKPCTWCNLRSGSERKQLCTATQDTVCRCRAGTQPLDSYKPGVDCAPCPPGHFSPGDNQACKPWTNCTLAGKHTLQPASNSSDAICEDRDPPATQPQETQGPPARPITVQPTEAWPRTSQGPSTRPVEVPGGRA

[10] = target: T10, human OX40-ECD.His K96A (human, UniProt P43489 29-214)
T10 construct: extracellular domain; not shown: C-terminal His-tag
T10 sequence (looked up): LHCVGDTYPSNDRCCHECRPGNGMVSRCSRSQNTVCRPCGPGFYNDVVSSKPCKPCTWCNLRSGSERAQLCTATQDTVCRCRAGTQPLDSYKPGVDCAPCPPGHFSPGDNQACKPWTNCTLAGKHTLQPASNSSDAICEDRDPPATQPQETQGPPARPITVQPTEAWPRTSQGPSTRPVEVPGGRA

B1: 1.134.9-u1-IgG1L (antibody, V domains shown)
VH: QVQLQESGPGLVKPSGTLSLTCAVSGGSISSYNWWSWVRQPPGKGLEWIGEIYHGGNTNYNPSLKSRVTMSVDNSKNQFSLKLSSVTAADTAVYYCARAPGDWGGSPYFDFWGQGTLVTVSS
VL: SSELTQDPAVSVALGQTVRITCQGDNLRTYYASWYQQKPGQAPILLIYGRNKRPSGIPDRFSGSSSGNTASLTITGAQAEDEAAYYCNSRDSSGNPVVFGGGTKLTVL
notes: fully human IgG1, lambda
Fold Change [1]: 0.998
Fold Change [2]: 0.894
Fold Change [3]: 0.907
Fold Change [4]: 0.913
Fold Change [5]: 0.692
Fold Change [6]: 0.995
Fold Change [7]: 1
Fold Change [8]: 0.808
Fold Change [9]: 1
Fold Change [10]: 0.949
